Drawing on US20050282743A1, “Molecular interactions in cells” (Arbor Vita Corporation, priority 2001, published 2005), this text covers Classification, Kd and fold decrease of binding with drug for two molecules.

What is called Kd is the constant that tells how readily two partners part at equilibrium. Read a low Kd as tighter binding.

For assay [1], the target named is T1, GST-Atrophin-1 Interacting Protein PDZ domain 1 (Rattus norvegicus (Rat)), O88382. The experiment in a line: G' assay. Note: key of the grades not given here.
Assay [2] concerns the target T2, GST-BAI-1 Associated Protein PDZ domain 2 (Mus musculus (Mouse)), Q6RHR9. The experiment in a line: G' assay. Note: key of the grades not given here.
The target of assay [3] is GST-DLG1 PDZ domains 1, 2 (Homo sapiens), Q12959. The experiment in a line: G' assay. Note: key of the grades not given here.
Assay [4] has as its target T3, GST-EZRIN Binding Protein 50 PDZ domain 1 (Homo sapiens (Human)), O14745.
T3 chain: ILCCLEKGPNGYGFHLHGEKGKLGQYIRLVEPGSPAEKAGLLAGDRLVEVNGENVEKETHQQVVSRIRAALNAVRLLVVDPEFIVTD
The experiment in a line: G' assay. Note: key of the grades not given here.

Assay [5] has as its target T4, GST-EZRIN Binding Protein 50 PDZ domain 2 (Homo sapiens (Human)), O14745.
T4 chain: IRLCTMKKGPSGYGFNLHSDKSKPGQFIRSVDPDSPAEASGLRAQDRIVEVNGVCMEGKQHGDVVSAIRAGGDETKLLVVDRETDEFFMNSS
The experiment in a line: G' assay. Note: key of the grades not given here.

Assay [6] concerns the target T5, GST-INADL PDZ domain 8 (Homo sapiens (Human)), Q8NI35.
T5 chain: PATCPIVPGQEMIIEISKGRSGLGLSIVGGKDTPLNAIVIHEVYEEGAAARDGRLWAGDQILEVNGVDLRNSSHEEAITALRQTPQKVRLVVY
The experiment in a line: G' assay. Note: key of the grades not given here.

Assay [7] concerns the target T6, GST-KIAA0807(S) PDZ domain 1 (Homo sapiens (Human)), Q6P0Q8.
T6 chain: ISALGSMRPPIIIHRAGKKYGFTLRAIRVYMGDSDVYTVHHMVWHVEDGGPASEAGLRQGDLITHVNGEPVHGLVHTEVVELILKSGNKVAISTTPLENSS
The experiment in a line: G' assay. Note: key of the grades not given here.

For assay [8], the target named is GST-KIAA1634 PDZ domain 1 (Homo sapiens (Human)), Q5TCQ9. The experiment in a line: G' assay. Note: key of the grades not given here.
Assay [9] addresses GST-KIAA807 [GST: P08515]. The experiment in a line: G' assay. Note: key of the grades not given here.
In assay [10] the target is T7, GST-MUPP1 PDZ domain 10 (Homo sapiens (Human)), O75970.
T7 chain: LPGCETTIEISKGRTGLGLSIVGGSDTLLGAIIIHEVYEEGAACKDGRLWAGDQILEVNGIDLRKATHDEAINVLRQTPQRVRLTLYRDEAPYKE
The experiment in a line: G' assay. Note: key of the grades not given here.

Assay [11] has as its target T8, GST-NOS1 PDZ domain 1 (Homo sapiens (Human)), P29475.
T8 chain: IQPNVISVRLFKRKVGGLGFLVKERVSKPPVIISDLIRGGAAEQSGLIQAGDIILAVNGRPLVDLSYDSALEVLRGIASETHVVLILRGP
The experiment in a line: G' assay. The note with it: remark: other sources report otherwise.

Assay [12] has as its target T9, GST-NeDLG PDZ domains 1, 2, Q92796.
T9 chain: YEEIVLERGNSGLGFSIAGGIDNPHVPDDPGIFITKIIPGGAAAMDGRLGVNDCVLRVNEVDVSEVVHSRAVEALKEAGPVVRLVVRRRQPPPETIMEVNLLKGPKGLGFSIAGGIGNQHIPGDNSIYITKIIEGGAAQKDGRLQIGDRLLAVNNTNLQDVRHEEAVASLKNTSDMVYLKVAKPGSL
The experiment in a line: G' assay.

Assay [13] concerns the target T10, GST-Outer Membrane PDZ domain 1 (Homo sapiens (Human)), P57105.
T10 chain: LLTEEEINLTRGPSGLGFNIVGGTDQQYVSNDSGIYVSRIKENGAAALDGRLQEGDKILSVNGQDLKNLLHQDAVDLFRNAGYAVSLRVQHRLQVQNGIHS
The experiment in a line: G' assay.

For assay [14], the target named is GST-PIST PDZ domain 1 (Mus musculus (Mouse)), Q8BH60. The experiment in a line: G' assay. Note: key of the grades not given here.
The target in assay [15] is GST-PSD95 PDZ domains 1, 2, 3 (Homo sapiens), P78352. The experiment in a line: G' assay. Note: key of the grades not given here.
For assay [16], the target named is T11, GST-Shank 1 PDZ domain 1 (Homo sapiens (Human)), Q9UPX8.
T11 chain: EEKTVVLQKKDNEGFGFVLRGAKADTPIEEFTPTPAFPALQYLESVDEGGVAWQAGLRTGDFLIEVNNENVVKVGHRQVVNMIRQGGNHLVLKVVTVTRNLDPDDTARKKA
The experiment in a line: G' assay.

Assay [17] concerns the target T12, GST-Shank 3 PDZ domain 1 (human (hypothetical, computer cloned)), Q9BYB0.
T12 chain: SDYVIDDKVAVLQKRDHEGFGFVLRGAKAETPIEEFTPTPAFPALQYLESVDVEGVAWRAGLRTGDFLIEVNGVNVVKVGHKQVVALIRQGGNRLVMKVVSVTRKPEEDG
The experiment in a line: G' assay.

The target in assay [18] is T13, GST-TIP1 PDZ domain 1 (Table 9 insert) (Homo sapiens (Human)), O14907.
T13 chain: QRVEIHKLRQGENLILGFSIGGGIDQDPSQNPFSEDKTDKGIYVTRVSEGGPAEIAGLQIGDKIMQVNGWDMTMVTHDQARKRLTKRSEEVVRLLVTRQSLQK
The experiment in a line: G' assay.

In assay [19] the target is T14, GST-ZO-1 PDZ domain 1 (Rattus norvegicus (Rat)), A0A0G2.
T14 chain: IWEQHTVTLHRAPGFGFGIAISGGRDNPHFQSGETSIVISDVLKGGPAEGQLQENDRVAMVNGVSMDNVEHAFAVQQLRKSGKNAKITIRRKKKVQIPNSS
The experiment in a line: G' assay.

Assay [20] addresses T15, GST-ZO-2 PDZ domain 1 (Homo sapiens (Human)), Q9UDY2.
T15 chain: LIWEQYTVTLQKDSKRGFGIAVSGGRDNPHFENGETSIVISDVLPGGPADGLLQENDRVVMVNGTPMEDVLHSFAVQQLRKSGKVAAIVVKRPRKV
The experiment in a line: G' assay.

Assay [21] concerns the target T1, GST-Atrophin-1 Interacting Protein PDZ …. The experiment in a line: G assay titration, PDZ 1 ug/ml.
For assay [22], the target named is T7, GST-MUPP1 PDZ domain 10 (Homo sapiens …). The experiment in a line: G assay titration, PDZ 1 ug/ml.
The target in assay [23] is T11, GST-Shank 1 PDZ domain 1 (Homo sapiens …). The experiment in a line: G assay titration, PDZ 1 ug/ml.
The target in assay [24] is T14, GST-ZO-1 PDZ domain 1 (Rattus …). The experiment in a line: G assay titration, PDZ 1 ug/ml.
For assay [25], the target named is T15, GST-ZO-2 PDZ domain 1 (Homo sapiens …). The experiment in a line: G assay titration, PDZ 1 ug/ml.
Assay [26] concerns the target T6, GST-KIAA0807(S) PDZ domain 1 (Homo …). The experiment in a line: G assay titration, PDZ 5 ug/ml.
Assay [27] has as its target GST-KIAA807 [GST: P08515]. The experiment in a line: G assay titration, PDZ 5 ug/ml.
Assay [28] concerns the target T2, GST-BAI-1 Associated Protein PDZ domain …. The experiment in a line: G assay titration, PDZ 0.1 ug/ml.
Assay [29] deals with GST-KIAA1634 PDZ domain 1 (Homo sapiens (Human)), Q5TCQ9. The experiment in a line: G assay titration, PDZ 0.3 ug/ml.
The target of assay [30] is GST-PIST PDZ domain 1 (Mus musculus (Mouse)), Q8BH60. The experiment in a line: G assay titration, PDZ 0.5 ug/ml.
In assay [31] the target is T15, GST-ZO-2 PDZ domain 1 (Homo sapiens …). The experiment in a line: G assay with desipramine or nortryptilline against no drug.
The target of assay [32] is T16, GST-FLJ 10324 PDZ domain 1 [GST: P08515].
T16 chain: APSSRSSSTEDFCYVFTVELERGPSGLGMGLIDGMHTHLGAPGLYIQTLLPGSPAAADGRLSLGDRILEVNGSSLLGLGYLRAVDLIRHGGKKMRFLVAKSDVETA
The experiment in a line: G' assay.

The target of assay [33] is T17, GST-HEMBA 1003117 PDZ domain 1 (Homo sapiens (Human)), Q96JH8.
T17 chain: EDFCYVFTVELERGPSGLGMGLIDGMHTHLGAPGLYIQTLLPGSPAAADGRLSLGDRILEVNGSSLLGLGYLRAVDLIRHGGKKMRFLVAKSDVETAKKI
The experiment in a line: G' assay.

The target in assay [34] is T18, GST-PICK1 PDZ domain 1 (Bos taurus (Bovine)), Q2T9M1.
T18 chain: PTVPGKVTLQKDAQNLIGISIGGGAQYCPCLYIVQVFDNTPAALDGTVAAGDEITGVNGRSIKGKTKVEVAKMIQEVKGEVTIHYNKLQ
The experiment in a line: G' assay.

For assay [35], the target named is T19, GST-PTPL1 PDZ domain 4 (Homo sapiens (Human)), Q12923.
T19 chain: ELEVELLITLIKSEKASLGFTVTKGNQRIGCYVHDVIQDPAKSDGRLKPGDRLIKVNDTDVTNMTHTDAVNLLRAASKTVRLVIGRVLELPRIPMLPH
The experiment in a line: G' assay.

Assay [36] has as its target T20, GST-ZO-1 PDZ domain 2 (Rattus norvegicus (Rat)), A0A0G2.
T20 chain: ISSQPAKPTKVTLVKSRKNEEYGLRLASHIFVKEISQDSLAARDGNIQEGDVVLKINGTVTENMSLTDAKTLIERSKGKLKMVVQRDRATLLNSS
The experiment in a line: G' assay.

For assay [37], the target named is T16, GST-FLJ 10324 PDZ domain 1 [GST: P08515]. The experiment in a line: G assay titration, PDZ 1 ug/ml.
Assay [38] has as its target T17, GST-HEMBA 1003117 PDZ domain 1 (Homo …). The experiment in a line: G assay titration, PDZ 5 ug/ml.
Assay [39] concerns the target GST-KIAA1634 PDZ domain 1 (Homo sapiens (Human)), Q5TCQ9. The experiment in a line: G assay titration, PDZ 5 ug/ml.
Assay [40] addresses T18, GST-PICK1 PDZ domain 1 (Bos taurus …). The experiment in a line: G assay titration, PDZ 5 ug/ml.
Assay [41] concerns the target T19, GST-PTPL1 PDZ domain 4 (Homo sapiens …). The experiment in a line: G assay titration, PDZ 5 ug/ml.

Sequence of GST-KIAA1634 PDZ domain 1 (Homo sapiens (Human)), Q5TCQ9 (Q5TCQ9 401-502): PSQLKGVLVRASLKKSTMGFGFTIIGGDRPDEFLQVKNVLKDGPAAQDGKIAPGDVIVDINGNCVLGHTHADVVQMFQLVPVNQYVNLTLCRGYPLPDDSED
Sequence of GST-KIAA807 [GST: P08515] (P08515 whole entry, the tested form may be a part): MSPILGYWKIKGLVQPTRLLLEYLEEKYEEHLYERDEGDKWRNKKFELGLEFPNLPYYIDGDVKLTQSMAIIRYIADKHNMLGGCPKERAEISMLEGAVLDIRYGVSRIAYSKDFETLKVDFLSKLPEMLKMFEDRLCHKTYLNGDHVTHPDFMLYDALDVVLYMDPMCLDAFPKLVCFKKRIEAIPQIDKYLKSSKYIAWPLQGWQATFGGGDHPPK
T2 sequence (Q6RHR9 455-558): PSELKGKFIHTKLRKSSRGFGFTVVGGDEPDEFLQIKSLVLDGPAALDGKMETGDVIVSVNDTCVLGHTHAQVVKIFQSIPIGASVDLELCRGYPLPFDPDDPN
T1 sequence (O88382 408-511): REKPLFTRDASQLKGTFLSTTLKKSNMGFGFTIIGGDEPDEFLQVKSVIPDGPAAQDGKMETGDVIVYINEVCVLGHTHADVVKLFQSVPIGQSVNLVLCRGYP
Sequence of GST-PSD95 PDZ domains 1, 2, 3 (Homo sapiens), P78352 (P78352 62-395): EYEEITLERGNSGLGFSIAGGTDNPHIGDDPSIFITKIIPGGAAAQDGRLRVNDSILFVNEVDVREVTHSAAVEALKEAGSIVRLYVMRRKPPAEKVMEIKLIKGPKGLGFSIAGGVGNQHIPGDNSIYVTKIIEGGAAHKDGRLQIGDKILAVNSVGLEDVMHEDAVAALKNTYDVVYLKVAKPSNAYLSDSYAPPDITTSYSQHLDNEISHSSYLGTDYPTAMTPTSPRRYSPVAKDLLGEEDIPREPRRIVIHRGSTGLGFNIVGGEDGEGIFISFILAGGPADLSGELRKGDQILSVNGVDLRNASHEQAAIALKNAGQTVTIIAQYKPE

B1: DNAM-1 (peptide)
peptide: TREDIYVNYPTFSRRPKTRV
modifications: not checked
As for B1, the Classification came out at 3 A450 class in assay [1]; 5 A450 class in [2]; 1 A450 class in assay [3]; 1 A450 class in assay [4]; 1 A450 class in assay [5]; 5 A450 class in [6]. Besides, the Classification in assay [7] is 3 A450 class; in assay [8], 5 A450 class; in assay [9], 3 A450 class; in assay [10], 4 A450 class; in assay [11], 1 A450 class; in assay [12] it was 2 A450 class. Moreover, the Classification in assay [13] came out at 1 A450 class; in assay [14], 4 A450 class; in [15], 2 A450 class; in [16] it was 5 A450 class; in assay [17] it was 2 A450 class; in assay [18], 1 A450 class. Also, the Classification in assay [19] worked out at 2 A450 class; in assay [20] it was 3 A450 class. The Kd in assay [21] was 3000 nM; in assay [22], 2500 nM; in [23] it was 5000 nM; in [24] it was 5000 nM; in assay [25], 3000 nM; in assay [26] it was 2000 nM. Further, the Kd in [27] was found to be 2000 nM; in assay [28], 4000 nM; in [29], 1000 nM; in [30], 2500 nM. This molecule came in with a fold decrease of binding with drug in assay [31] of 4.2 fold.

B2: Dopamine transporter (peptide)
peptide: RELVDRGEVRQFTLRHWLKV
modifications: not checked
Take B2: the Classification in assay [32] came to 5 A450 class; in assay [33], 5 A450 class; in assay [7], 4 A450 class; in assay [8], 3 A450 class; in assay [9], 4 A450 class; in assay [34] it was 2 A450 class. Moreover, the Classification in assay [35] was determined as 3 A450 class; in assay [36], 1 A450 class. Further, the Kd was 300 nM in [37]; 300 nM in assay [38]; 400 nM in assay [26]; 900 nM in assay [39]; 400 nM in assay [27]; 900 nM in assay [40]. Moreover, the Kd in assay [41] was found to be 400 nM.
